Data: the nanobody polyreactivity screen of Harvey et al. (2022)

Test: yeast display, Sf9 membrane polyspecificity reagent, FACS + sequencing; frameworks hold sequencing errors
In short: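 A synthetic nanobody library was expressed on Saccharomyces cerevisiae BJ5465 by galactose induction for 36–48 hours. The library was stained for 1 hour at 4 °C with 10% biotinylated, detergent-solubilized Sf9 membrane reagent and enriched with streptavidin microbeads before FACS. Low and high (top ~1%) gates were set on anti-HA fluorescence for expression and streptavidin fluorescence for reagent binding, and each polyreactivity label reflects the gate of origin.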

QVQLVESGGGLVQAGGSLRLSCDASGSIFLFNAMGWYIQAPGKERELVASISRASSTSYADSVKGRFTISRDNAKNTVYLQMNSLKPEDTAVYYCAAVVASFEFRFDYWGQGTQVTVSS
polyreactivity (PSR sort gate): low polyreactivity

QVQLVESGGGLVQAGGSLRLSCAASGSIFDDYAMGWYRQAPGKERELVAAISSSGTSTYYADSVKGRFTISRDNAKNTVYLQMNSLKQEDTAVYYCAARSAILKSGYLMDYWGQGTQVTVSS
polyreactivity (PSR sort gate): low polyreactivity

QVQLVESGGGLVQAGGSLRLSCAASGRTFFRYAMGWYRQAPGKERELVASISGGITNYADSVKGRFTISRDNAQNTVYLQMNSLKPEDTAVYYCAADDYPYSYSSQFQYTGYEYWGQGTQVTVSS
polyreactivity (PSR sort gate): low polyreactivity

QVQLVESGGGLEQAGGSIRLNCAASGSTFRYNAMGWYRQARGKERELVAAITWSGGSTYFADSVKGRFTISRDNAKHNVYLQMNSLKAEDTAVYYCAKVYFWGALSPYKYDEDYWGQGTQVTVSS
polyreactivity (PSR sort gate): low polyreactivity

QVQLVESGGGLVQAGGSLRLSCAASGSTFITNSMGWYRQAPGKERELVAAITYSTGGTYYADSVKGRFTISRDNAKNTVYLQMNSLKPEDTAVYYCAALLYFFLYDYWGQGTQVSVSS
polyreactivity (PSR sort gate): low polyreactivity

QVQLVESGGGLVQAGGSLRLSCAASGFTLKYYAMGWYRQAPGKERELVAAITQRGGSTYADSVKGRFTISRDNAKNTVYLQMNSLKPEDTAFYFCAASSAKYRLYGGYDYWGQGTQVTVSS
polyreactivity (PSR sort gate): high polyreactivity

QVQLVESGGGLDQAGGSLRLTWAASGSIFKFYAMGWYRQAPGKERDMVAAISQSGGRTYYADSVKGRFTISRDNAKNSVYLQMNSLKPEDTAVYYCAKSVFPVYGRPSNLWFNYWGQGTQVTVSS
polyreactivity (PSR sort gate): high polyreactivity

QVPIVESGGGLVQAGGSLRLSCAAYGIIFRLNAMGWNTQAPGKERELVAAITRRGGTTYYADSVKGRFTISRDNAKNTVYLQMNSLKPEDTAVYYCNTFYYWQYDWGQGTQVTESS
polyreactivity (PSR sort gate): high polyreactivity

QLQLVESGGGLVQAGGSLRLSCAASGRIFQRYAMGWYRQAPGKERELVAGITSSGGSTYYADSVKGRFTISRDNAKNTVYLQMNSLKPEDTAVYYCNAGGELRYYGYRAGGTTRSYDYWGQGTQVTVSS
polyreactivity (PSR sort gate): low polyreactivity

QVQLVESGGGLVQAGGSLRLSCAASGSTFLSYAMGWYRQAPGKERELVAAISCRGGSTYYADSVKGRFTISRDNAKNTVYLQMNSLKPEDTAVYYCARVYRPSADTYNYWGQGTKVTVSS
polyreactivity (PSR sort gate): high polyreactivity

QVQLVESGGGLVQAGGSLRLSCAASGIIFESYAMGCYRQAPGKERELVAAISSRGGSTYYADSVKGRFTISRDNSKNTVYLQMNSLKPEDTAVYYCAADVAAGVSSYPTKYSYDYWGQGTQVTVSS
polyreactivity (PSR sort gate): low polyreactivity

QVQLVESGGGLVQAGGSLRLSCAASGSTFFYNAMGWYRKAPGKERELVAAITGSGTRTYYADSVKGRFTISRDNAKNTVYLQMNSLKPEDTAVYYCAKYPHPLKYRGYPSEFDYWGQGTQVTVSS
polyreactivity (PSR sort gate): low polyreactivity

QVQLVESGGGLVQAGGSLRLSCAASGSTFVWYAMGWYRQAPGKERELVAAISSGGSTNYADSVKGRFTISRDNAKNTVYLQMNSLKPEDTAVYYCAAKAYFSSYWRWRGAMDHWGQGTQVTVSS
polyreactivity (PSR sort gate): low polyreactivity

QVQLVESGGGLVQAGGSLRLSCSASGTISGLYAMGWYRQATGKERELVARIRWRGDSTYYADSVKGRFTISRDNAKNTVYLQMNSLNPEDTAVFYCAASAYSGKVNKYNYWGQGTQVTVSS
polyreactivity (PSR sort gate): high polyreactivity

QVQLVESGGGLVQAGGSLRLSCAASGRIFDLNAMGWYRPAPGKERELVAAITNTGSTNYADSVKGRFTISRDNAKNTVYLQMNSLKPEDTAVYYCARTYWLRYYGYRDDEYDYWGQGTQVTVSS
polyreactivity (PSR sort gate): low polyreactivity

QVQLVESGGGLVQAGGSLRLSCAASGRTSREYAMGWYRQAPGKERELVAAISWNGGSTYYADSVKGRFTISRDNAMNTVYLQMNSLKPEDTAVYYCAARGKGYYRFGYWGQGTQVTVSS
polyreactivity (PSR sort gate): high polyreactivity

QVQLVESGGGLVQSGGSLRLSCAASGRTFGYNAMGWYRQAPGKERELVAAISRSGDSTYYADSVKGRFTISRDNAKNTVYLQMNSLNPEVTAVFYCATRYVTTGYDYWGQGTQVTVSS
polyreactivity (PSR sort gate): low polyreactivity

QVQLVESGGGLVQAGGSLRLSCAASGSIFPIYAMGWYRQAPGKERELVAAISGSGARTYYADSVKGRFTISRDNAKNTVYLQMNSLKPEDTAVYYCNAKYGYDSEARIVKPVRYDYWGQGTQVTVSS
polyreactivity (PSR sort gate): high polyreactivity

HDQLVESGGGLVQAGGSLRLSCAASGNTFIYYAMGWYRQAPGKEREMVAAISRSGGSTYYADSVKGRFTISRDNAKNTVYLQMNSLKPEDTAVYYCAAEATKWIGVVTMDYWGQGTQVTVSS
polyreactivity (PSR sort gate): high polyreactivity

QVQLEESGGGLVQAGGSLRLSCAASGSIIRYNAMGWYRQAPGKERELVAAISASGGRTHYADSVKGRFTISRDNAKNTVYLQMNSLKPEYTAVYYCAASTYRVTSLYGYWGQGTQVTVSS
polyreactivity (PSR sort gate): high polyreactivity

QVQLVDSGGGLVQAGGSLRLSCAASGIIFPVYAMGWYRQAPGKERELVAAITYSGDRTYYADSVKGRFTISRDNAKNTVYLQMNSLKPEDSAVYYCNARFGVWPYFYNEDDYWGQGTQVTVSS
polyreactivity (PSR sort gate): low polyreactivity

QVQLEESGGGLVQAGGRLRLTCAASGFIFKLYAMGWYRQAPGKERELVAAISGNGGRTYYADSVKGRFTISRDNAKNTVYLQMNSLKPEDTAVDYCAARYVGVQRYYEFDYWGQGTQVTVSS
polyreactivity (PSR sort gate): high polyreactivity

QVQLVESGGGLVQAGGSLRLSCAASGGIFSYNDMGWYRQAPGKERELVAAISSGGGGITYYADSVKGRFTISRDNAKNTVYLQMNSLKPEDTAVYYCNVVPDFRAAYSSQYYYWGQGTQVTVSS
polyreactivity (PSR sort gate): low polyreactivity

QVQLVESGGGLDQAGCSLRLSCAASGRIFPYMGWYRQAPGKDRELVAAINASGGRTYYADSVKGRFTISRDNAKNTVYLQMNSLKPEDTAVYYCNAVWSSDTYTHPQYDYWGQGTQVTVSS
polyreactivity (PSR sort gate): high polyreactivity

QVQLVESGGGLVQAGGSLRLSCAASGITFIYYHMGWYRQAPGKERELVAAINWSGGRTYYADSVKGRFTISRDNAKNTVYVQMNSLIPEDTAVYYCAADSWRPVYLGYYWGQGTQVTVSS
polyreactivity (PSR sort gate): high polyreactivity

QVQLVESGGGLVQAGGSLRLSCAASGSIFRLYGMGWYRQAPGKERELVASITYRGGNTYYADSVKGRFTISRDNAKNTVYLQMNSLKPEDTAVYYCARSGYQKVGGFRYDYWGQGTQVTVSS
polyreactivity (PSR sort gate): low polyreactivity

QVQLVESGGGLVQAGGSLRLSCAASGIILYGYDMGWYRQAPGKERELVAAISSSGGSTYYADSVKGRFTISRDNAKNTVYLQMNSLKPEDTAVYYCAASKRYYGQLLTGGYYGYYYCGQGTQVTVSS
polyreactivity (PSR sort gate): high polyreactivity

QVQLVESGGGLAQAGGSLRLSCAASGSTFYSYAMGWYRQAPGKERELVAGITWNDGSTYYADSVKGRFTISRDNAKNTVYLQMNSLKPEDTAVYYCNTDASPYLFDYWGHGTQVTVSS
polyreactivity (PSR sort gate): low polyreactivity

QVQLVESGGGLVQAGGSLRLSCAASGRIFSWNAMGWYRQAPGKERELVAAISSGGSTIYADSVKGRFTISRDNAKNTVYLQMNSLKPEYTAVYYCATRNGYSGTYGYWGQGTQVTVSS
polyreactivity (PSR sort gate): low polyreactivity

QVQLVESGGGLVQAGGSLRLSCAASGFTFYVNAMGWYRQAPGKERELVAVISTGGSTYYADSVKGRFTISRDNAKNTVYLQMNSLKPEDTAVYYCAKRDLPDRSGTPNVIPFDYWGQGTQVTVSS
polyreactivity (PSR sort gate): low polyreactivity

QLQLVESGGGLVQAGGSLRLTCAASGSTFTKYDMGWYRQAPGKERELVAAIRSGGDTNYADSVKGRFTISRDNAKYTVYLQMNSLKPEDTAVYYCNTLRNWYYQFDFNYWGQGTQVTVSS
polyreactivity (PSR sort gate): low polyreactivity
